According to paper PMC10397247:

T1: 4H918-bA
T1 chain: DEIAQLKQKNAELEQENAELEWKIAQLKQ

T2: 4H754-bA
T2 chain: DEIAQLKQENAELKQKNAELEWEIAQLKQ

T3: 4H780-bA
T3 chain: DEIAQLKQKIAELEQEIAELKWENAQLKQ

T4: 4H883-bA
T4 chain: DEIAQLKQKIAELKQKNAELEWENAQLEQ

T5: 4H855-bA
T5 chain: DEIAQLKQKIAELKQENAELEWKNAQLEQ

T6: 4H908-bA
T6 chain: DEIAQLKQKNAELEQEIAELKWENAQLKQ

T7: 4H967-bA
T7 chain: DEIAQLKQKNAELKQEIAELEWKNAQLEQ

T8: P11mS
T8 chain: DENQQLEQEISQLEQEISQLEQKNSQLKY

T9: 4H968-bA
T9 chain: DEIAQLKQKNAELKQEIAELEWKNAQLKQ

T10: 4H908-bN
T10 chain: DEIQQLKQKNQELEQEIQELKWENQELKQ

T11: 4H953-bA
T11 chain: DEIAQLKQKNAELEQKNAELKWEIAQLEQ

T12: 4H797-bA
T12 chain: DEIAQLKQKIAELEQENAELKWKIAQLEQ

T13: 4H2568-bN
T13 chain: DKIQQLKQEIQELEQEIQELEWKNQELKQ

T14: 4H470-bN
T14 chain: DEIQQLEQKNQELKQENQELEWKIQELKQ

T15: 4H344-bN
T15 chain: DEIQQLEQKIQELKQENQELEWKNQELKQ

T16: 4H2619-bN
T16 chain: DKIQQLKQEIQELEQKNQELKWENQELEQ

T17: 4H2745-bN
T17 chain: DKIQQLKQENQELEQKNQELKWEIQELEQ

T18: 4H363-bN
T18 chain: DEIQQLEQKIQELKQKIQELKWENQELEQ

T19: 4H3961-bN
T19 chain: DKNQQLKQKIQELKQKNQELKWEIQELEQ

T20: 4H3907-bN
T20 chain: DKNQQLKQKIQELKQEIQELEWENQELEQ


Key:
Test in all cases: two-hybrid library CCNG1;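 note: natural log of median RNA to DNA barcode read ratio; higher means stronger binding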
[1] = biological target: T1, 4H918-bA
[2] = biological target: T2, 4H754-bA
[3] = biological target: T3, 4H780-bA
[4] = biological target: T4, 4H883-bA
[5] = biological target: T5, 4H855-bA
[6] = biological target: T6, 4H908-bA
[7] = biological target: T7, 4H967-bA
[8] = biological target: T8, P11mS
[9] = biological target: T9, 4H968-bA
[10] = biological target: T10, 4H908-bN
[11] = biological target: T11, 4H953-bA
[12] = biological target: T12, 4H797-bA
[13] = biological target: T13, 4H2568-bN
[14] = biological target: T14, 4H470-bN
[15] = biological target: T15, 4H344-bN
[16] = biological target: T16, 4H2619-bN
[17] = biological target: T17, 4H2745-bN
[18] = biological target: T18, 4H363-bN
[19] = biological target: T19, 4H3961-bN
[20] = biological target: T20, 4H3907-bN

Binder	interaction score [1]	interaction score [2]	interaction score [3]	interaction score [4]	interaction score [5]	interaction score [6]	interaction score [7]	interaction score [8]	interaction score [9]	interaction score [10]	interaction score [11]	interaction score [12]	interaction score [13]	interaction score [14]	interaction score [15]	interaction score [16]	interaction score [17]	interaction score [18]	interaction score [19]	interaction score [20]
DEIAQLKQENAELKQKNAELEWEIAQLKQ [4H754-bA]	-0.579	1.57	-1.48	-0.374	-0.914	-0.879	-0.575	-1.53	-0.368	-0.94	0.496	-0.233								
DKIQQLKQEIQELEQEIQELEWKNQELKQ [4H2568-bN]													0.798	0.618	-0.22	-0.118	-1.2	0.932	1.52	0.402
